{"source": "patent US10906951B2", "about": "“Modified natural killer cells and natural killer cell lines having increased cytotoxicity” (ONK THERAPEUTICS LIMITED, priority 2015, dated 2021)", "origin": "cited, not measured here", "molecules": {"B1": {"name": "D269H: TRAIL variant, Van der Sloot 2006 (protein, UniProt P50591 1-281, looked up, variant D269H)", "Tumor necrosis factor ligand …": "MAMMEVQGGPSLGQTCVLIVIFTVLLQSLCVAVTYVYFTNELKQMQDKYSKSGIACFLKEDDSYWDPNDEESMNSPCWQVKWQLRQLVRKMILRTSEETISTVQEKQQNISPLVRERGPQRVAAHITGTRGRSNTLSSPNSKNEKALGRKINSWESSRSGHSFLSNLHLRNGELVIHEKGFYYIYSQTYFRFQEEIKENTKNDKQMVQYIYKYTSYPDPILLMKSARNSCWSKDAEYGLYSIYQGGIFELKENDRIFVSVTNEHLIDMHHEASFFGAFLVG"}, "B2": {"name": "Y240A: TRAIL DR5 variant, WO 01/00832 (protein, UniProt P50591 1-281, looked up, variant Y240A)", "Tumor necrosis factor ligand …": "B1 Tumor necrosis factor ligand … with Y240A, H269D"}, "B3": {"name": "N199V: TRAIL variant, MacFarlane 2005 (protein, UniProt P50591 1-281, looked up, variant N199V)", "Tumor necrosis factor ligand …": "B1 Tumor necrosis factor ligand … with N199V, H269D"}, "B4": {"name": "Y189A/Q193S/N199V/K201R/Y213W/S215D: TRAIL variant, MacFarlane 2005 (protein, UniProt P50591 1-281, looked up, variant Y189A Q193S N199V K201R Y213W S215D)", "Tumor necrosis factor ligand …": "B1 Tumor necrosis factor ligand … with Y189A, Q193S, N199V, K201R, Y213W, S215D, H269D"}, "B5": {"name": "T214R/D269H: TRAIL variant, Van der Sloot 2006 (protein, UniProt P50591 1-281, looked up, variant T214R D269H)", "Tumor necrosis factor ligand …": "B1 Tumor necrosis factor ligand … with T214R"}, "B6": {"name": "T214R/E195R: TRAIL variant, Van der Sloot 2006 (protein, UniProt P50591 1-281, looked up, variant T214R E195R)", "Tumor necrosis factor ligand …": "B1 Tumor necrosis factor ligand … with E195R, T214R, H269D"}, "B7": {"name": "E195R: TRAIL variant, Van der Sloot 2006 (protein, UniProt P50591 1-281, looked up, variant E195R)", "Tumor necrosis factor ligand …": "B1 Tumor necrosis factor ligand … with E195R, H269D"}, "B8": {"name": "D269A: TRAIL DR5 variant, WO 01/00832 (protein, UniProt P50591 1-281, looked up, variant D269A)", "Tumor necrosis factor ligand …": "B1 Tumor necrosis factor ligand … with H269A"}, "B9": {"name": "T214R: TRAIL variant, Van der Sloot 2006 (protein, UniProt P50591 1-281, looked up, variant T214R)", "Tumor necrosis factor ligand …": "B1 Tumor necrosis factor ligand … with T214R, H269D"}, "B10": {"name": "Y213W/S215D: TRAIL variant, MacFarlane 2005 (protein, UniProt P50591 1-281, looked up, variant Y213W S215D)", "Tumor necrosis factor ligand …": "B1 Tumor necrosis factor ligand … with Y213W, S215D, H269D"}, "B11": {"name": "K201H: TRAIL DR4 variant, WO 2009/066174 (protein, UniProt P50591 1-281, looked up, variant K201H)", "Tumor necrosis factor ligand …": "B1 Tumor necrosis factor ligand … with K201H, H269D"}, "B12": {"name": "K204E: TRAIL DR4 variant, WO 2009/066174 (protein, UniProt P50591 1-281, looked up, variant K204E)", "Tumor necrosis factor ligand …": "B1 Tumor necrosis factor ligand … with K204E, H269D"}, "B13": {"name": "G131R: TRAIL DR4 variant, WO 2009/066174 (protein, UniProt P50591 1-281, looked up, variant G131R)", "Tumor necrosis factor ligand …": "B1 Tumor necrosis factor ligand … with G131R, H269D"}, "B14": {"name": "R149I: TRAIL DR4 variant, WO 2009/066174 (protein, UniProt P50591 1-281, looked up, variant R149I)", "Tumor necrosis factor ligand …": "B1 Tumor necrosis factor ligand … with R149I, H269D"}, "B15": {"name": "S215K: TRAIL DR4 variant, WO 2009/066174 (protein, UniProt P50591 1-281, looked up, variant S215K)", "Tumor necrosis factor ligand …": "B1 Tumor necrosis factor ligand … with S215K, H269D"}, "B16": {"name": "R149M: TRAIL DR4 variant, WO 2009/066174 (protein, UniProt P50591 1-281, looked up, variant R149M)", "Tumor necrosis factor ligand …": "B1 Tumor necrosis factor ligand … with R149M, H269D"}, "B17": {"name": "D218H: TRAIL DR4 variant, WO 2009/066174 (protein, UniProt P50591 1-281, looked up, variant D218H)", "Tumor necrosis factor ligand …": "B1 Tumor necrosis factor ligand … with D218H, H269D"}, "B18": {"name": "R149N: TRAIL DR4 variant, WO 2009/066174 (protein, UniProt P50591 1-281, looked up, variant R149N)", "Tumor necrosis factor ligand …": "B1 Tumor necrosis factor ligand … with R149N, H269D"}, "B19": {"name": "R149K: TRAIL DR4 variant, WO 2009/066174 (protein, UniProt P50591 1-281, looked up, variant R149K)", "Tumor necrosis factor ligand …": "B1 Tumor necrosis factor ligand … with R149K, H269D"}, "B20": {"name": "S215H: TRAIL DR4 variant, WO 2009/066174 (protein, UniProt P50591 1-281, looked up, variant S215H)", "Tumor necrosis factor ligand …": "B1 Tumor necrosis factor ligand … with S215H, H269D"}, "B21": {"name": "G131K: TRAIL DR4 variant, WO 2009/066174 (protein, UniProt P50591 1-281, looked up, variant G131K)", "Tumor necrosis factor ligand …": "B1 Tumor necrosis factor ligand … with G131K, H269D"}, "B22": {"name": "K204L: TRAIL DR4 variant, WO 2009/066174 (protein, UniProt P50591 1-281, looked up, variant K204L)", "Tumor necrosis factor ligand …": "B1 Tumor necrosis factor ligand … with K204L, H269D"}, "B23": {"name": "K251D: TRAIL DR4 variant, WO 2009/066174 (protein, UniProt P50591 1-281, looked up, variant K251D)", "Tumor necrosis factor ligand …": "B1 Tumor necrosis factor ligand … with K251D, H269D"}, "B24": {"name": "S215D: TRAIL DR4 variant, WO 2009/066174 (protein, UniProt P50591 1-281, looked up, variant S215D)", "Tumor necrosis factor ligand …": "B1 Tumor necrosis factor ligand … with S215D, H269D"}, "B25": {"name": "K251E: TRAIL DR4 variant, WO 2009/066174 (protein, UniProt P50591 1-281, looked up, variant K251E)", "Tumor necrosis factor ligand …": "B1 Tumor necrosis factor ligand … with K251E, H269D"}, "B26": {"name": "K201R: TRAIL DR4 variant, WO 2009/066174 (protein, UniProt P50591 1-281, looked up, variant K201R)", "Tumor necrosis factor ligand …": "B1 Tumor necrosis factor ligand … with K201R, H269D"}, "B27": {"name": "S159R: TRAIL DR4 variant, WO 2009/066174 (protein, UniProt P50591 1-281, looked up, variant S159R)", "Tumor necrosis factor ligand …": "B1 Tumor necrosis factor ligand … with S159R, H269D"}, "B28": {"name": "K204Y: TRAIL DR4 variant, WO 2009/066174 (protein, UniProt P50591 1-281, looked up, variant K204Y)", "Tumor necrosis factor ligand …": "B1 Tumor necrosis factor ligand … with K204Y, H269D"}, "B29": {"name": "K204D: TRAIL DR4 variant, WO 2009/066174 (protein, UniProt P50591 1-281, looked up, variant K204D)", "Tumor necrosis factor ligand …": "B1 Tumor necrosis factor ligand … with K204D, H269D"}, "B30": {"name": "G131R/D218H: TRAIL DR4 variant, WO 2009/066174 (protein, UniProt P50591 1-281, looked up, variant G131R D218H)", "Tumor necrosis factor ligand …": "B1 Tumor necrosis factor ligand … with G131R, D218H, H269D"}, "B31": {"name": "S215E: TRAIL DR4 variant, WO 2009/066174 (protein, UniProt P50591 1-281, looked up, variant S215E)", "Tumor necrosis factor ligand …": "B1 Tumor necrosis factor ligand … with S215E, H269D"}, "B32": {"name": "K251Q: TRAIL DR4 variant, WO 2009/066174 (protein, UniProt P50591 1-281, looked up, variant K251Q)", "Tumor necrosis factor ligand …": "B1 Tumor necrosis factor ligand … with K251Q, H269D"}, "B33": {"name": "Q193H: TRAIL DR4 variant, WO 2009/066174 (protein, UniProt P50591 1-281, looked up, variant Q193H)", "Tumor necrosis factor ligand …": "B1 Tumor necrosis factor ligand … with Q193H, H269D"}, "B34": {"name": "Y189Q/R191K/Q193R/H264R/I266L/D267Q: TRAIL DR4 variant, MacFarlane 2005 (protein, UniProt P50591 1-281, looked up, variant Y189Q R191K Q193R H264R I266L D267Q)", "Tumor necrosis factor ligand …": "B1 Tumor necrosis factor ligand … with Y189Q, R191K, Q193R, H264R, I266L, D267Q, H269D"}, "B35": {"name": "K212R: TRAIL DR4 variant, WO 2009/066174 (protein, UniProt P50591 1-281, looked up, variant K212R)", "Tumor necrosis factor ligand …": "B1 Tumor necrosis factor ligand … with K212R, H269D"}, "B36": {"name": "H270D: TRAIL DcR variant, Leary 2016 (protein, UniProt P50591 1-281, looked up, variant H270D)", "Tumor necrosis factor ligand …": "B1 Tumor necrosis factor ligand … with H269D, H270D"}, "B37": {"name": "T200H: TRAIL DcR variant, Leary 2016 (protein, UniProt P50591 1-281, looked up, variant T200H)", "Tumor necrosis factor ligand …": "B1 Tumor necrosis factor ligand … with T200H, H269D"}, "B38": {"name": "T261L: TRAIL DcR variant, Leary 2016 (protein, UniProt P50591 1-281, looked up, variant T261L)", "Tumor necrosis factor ligand …": "B1 Tumor necrosis factor ligand … with T261L, H269D"}}, "note": "Positions count from the first letter of the chain named. Names may count otherwise.", "data": [{"molecular_target": "DR5 (Homo sapiens, UniProt O14763)", "details": "in words; known from WO 2009/077857, Van der Sloot 2006, MacFarlane 2005, WO 01/00832; cited from earlier work", "values": [{"molecule": "B1", "affinity for DR5": "increased affinity for DR5"}, {"molecule": "B2", "affinity for DR5": "DR5 variants"}, {"molecule": "B3", "affinity for DR5": "increased affinity for DR5"}, {"molecule": "B4", "affinity for DR5": "increased affinity for DR5"}, {"molecule": "B5", "affinity for DR5": "increased affinity for DR5"}, {"molecule": "B6", "affinity for DR5": "increased affinity for DR5"}, {"molecule": "B7", "affinity for DR5": "increased affinity for DR5"}, {"molecule": "B8", "affinity for DR5": "DR5 variants"}, {"molecule": "B9", "affinity for DR5": "increased affinity for DR5"}, {"molecule": "B10", "affinity for DR5": "increased affinity for DR5"}]}, {"molecular_target": "DR4 (Homo sapiens, UniProt O00220)", "details": "in words; known from WO 2009/066174, MacFarlane 2005; cited from earlier work", "values": [{"molecule": "B11", "affinity for DR4": "increased affinity for DR4"}, {"molecule": "B12", "affinity for DR4": "increased affinity for DR4"}, {"molecule": "B13", "affinity for DR4": "increased affinity for DR4"}, {"molecule": "B14", "affinity for DR4": "increased affinity for DR4"}, {"molecule": "B15", "affinity for DR4": "increased affinity for DR4"}, {"molecule": "B16", "affinity for DR4": "increased affinity for DR4"}, {"molecule": "B17", "affinity for DR4": "increased affinity for DR4"}, {"molecule": "B18", "affinity for DR4": "increased affinity for DR4"}, {"molecule": "B19", "affinity for DR4": "increased affinity for DR4"}, {"molecule": "B20", "affinity for DR4": "increased affinity for DR4"}, {"molecule": "B21", "affinity for DR4": "increased affinity for DR4"}, {"molecule": "B22", "affinity for DR4": "increased affinity for DR4"}, {"molecule": "B23", "affinity for DR4": "increased affinity for DR4"}, {"molecule": "B24", "affinity for DR4": "increased affinity for DR4"}, {"molecule": "B25", "affinity for DR4": "increased affinity for DR4"}, {"molecule": "B26", "affinity for DR4": "increased affinity for DR4"}, {"molecule": "B27", "affinity for DR4": "increased affinity for DR4"}, {"molecule": "B28", "affinity for DR4": "increased affinity for DR4"}, {"molecule": "B29", "affinity for DR4": "increased affinity for DR4"}, {"molecule": "B30", "affinity for DR4": "increased affinity for DR4"}, {"molecule": "B31", "affinity for DR4": "increased affinity for DR4"}, {"molecule": "B32", "affinity for DR4": "increased affinity for DR4"}, {"molecule": "B33", "affinity for DR4": "increased affinity for DR4"}, {"molecule": "B34", "affinity for DR4": "DR4 variants"}, {"molecule": "B35", "affinity for DR4": "increased affinity for DR4"}]}, {"test_system": "TRAIL decoy receptors (DcR1 and DcR2)", "details": "in words; known from WO 2009/077857, Leary 2016, WO 01/00832; cited from earlier work", "values": [{"molecule": "B36", "affinity for TRAIL decoy receptors": "decreased affinity for TRAIL decoy receptors"}, {"molecule": "B37", "affinity for TRAIL decoy receptors": "decreased affinity for TRAIL decoy receptors"}, {"molecule": "B38", "affinity for TRAIL decoy receptors": "decreased affinity for TRAIL decoy receptors"}]}]}
